Reference: patent publication US20230242876A1 (SHANGHAI SINOBIO BIOTECH, published 2023)

How the values were obtained:
Test in all cases: ELISA, antigen coated at 1 ug/ml, binder titrated from 10 ug/ml, OD450
[1] = target: T1, CD3-B7RP-1 BsM_M
T1 construct: N-glycosylated on the B7RP-1 part; also called anti-CD3/B7RP-1 bispecific molecule of monomeric form

[2] = target: T2, CD3-B7RP-1 BsM_D
T2 construct: glycosylated, disulfide-linked dimer; also called anti-CD3/B7RP-1 bispecific molecule of dimeric form

[3] = target: T3, CD3-GITRL BsM_M
T3 construct: glycosylated; also called anti-CD3/GITRL bispecific molecule of monomeric form

[4] = target: T4, CD3-GITRL BsM_D
T4 construct: glycosylated, disulfide-linked dimer; also called anti-CD3/GITRL bispecific molecule of dimeric form

[5] = target: T5, CD3-OX40L BsM_D
T5 construct: glycosylated, disulfide-linked dimer; also called anti-CD3/OX40L bispecific molecule of dimeric form

[6] = target: T6, CD3-OX40L BsM_M
T6 construct: N-glycosylated; also called anti-CD3/OX40L bispecific molecule of monomeric form

[7] = target: T7, CD3-CD70 BsM_M
T7 construct: N-glycosylated; also called anti-CD3/CD70 bispecific molecule of monomeric form

[8] = target: T8, CD3-CD70 BsM_D
T8 construct: glycosylated, disulfide-linked dimer; also called anti-CD3/CD70 bispecific molecule of dimeric form

B1: human ICOS-hFc recombinant protein (Fc fusion)
chain: EINGSANYEMFIFHNGGVQILCKYPDIVQQFKMQLLKGGQILCDLTKTKGSGNTVSIKSLKFCHSQLSNNSVSFFLYNLDHSHANYYFCNLSIFDPPPFKVTLTGGYLHIYESQLCCQLK
notes: Purchased from Novoprotein; also called ICOS-hFc recombinant antigen; not shown: human Fc (hFc) of the purchased fusion
[1]
  binding result: binds
[2]
  binding result: binds

B2: human GITR-hFc recombinant protein (Fc fusion)
chain: QRPTGGPGCGPGRLLLGTGTDARCCRVHTTRCCRDYPGEECCSEWDCMCVQPEFHCGDPCCTTCRHHPCPPGQGVQSQGKFSFGFQCIDCASGTFSGGHEGHCKPWTDCTQFGFLTVFPGNKTHNAVCVPGSPPAE
notes: Purchased from Novoprotein; also called GITR-hFc recombinant antigen; not shown: human Fc (hFc) of the purchased fusion
[3]
  binding result: binds
[4]
  binding result: binds

B3: human OX40-hFc recombinant protein (Fc fusion)
chain: LHCVGDTYPSNDRCCHECRPGNGMVSRCSRSQNTVCRPCGPGFYNDVVSSKPCKPCTWCNLRSGSERKQLCTATQDTVCRCRAGTQPLDSYKPGVDCAPCPPGHFSPGDNQACKPWTNCTLAGKHTLQPASNSSDAICEDRDPPATQPQETQGPPARPITVQPTEAWPRTSQGPSTRPVEVPGGRA
notes: Purchased from Novoprotein; also called OX40-hFc recombinant antigen; not shown: human Fc (hFc) of the purchased fusion
[5]
  binding result: binds
[6]
  binding result: binds

B4: human CD27-hFc recombinant protein (Fc fusion)
chain: TPAPKSCPERHYWAQGKLCCQMCEPGTFLVKDCDQHRKAAQCDPCIPGVSFSPDHHTRPHCESCRHCNSGLLVRNCTITANAECACRNGWQCRDKECTECDPLPNPSLTARSSQALSPHPQPTHLPYVSEMLEARTAGHMQTLADFRQLPARTLSTHWPPQRSLCSSDFIR
notes: Purchased from Novoprotein; also called CD27-hFc recombinant antigen; not shown: human Fc (hFc) of the purchased fusion
[7]
  binding result: binds
[8]
  binding result: binds
